pIC50: −log10 of the molar value.
Legend:
[1] = target: T1, reporter protein DTPA-V5-TMD-mRuby3 (DTPA-R) on Jurkat cells (Homo sapiens, UniProt P80188, C107S/D67E/D97E/I100T/I61A/I75T/K154S/K66P/K70L/K95M/L127F/L56R/L62P/L90R/M71L/N85D/P68L/Q48H/Q69L/R101M/R63P/S119N/S147Q/S88A/T156S/T74Q/V53Q/W99L/Y158L/Y72T); assay: Competition radioligand binding assay (Y-90 radioligand vs Y-89 charged chelator) on Jurkat cells; conditions: competition of fixed amount of Y-90 radioligand by dilution series of Y-89 charged chelator, FIG. 14A
T1 construct: to Jurkat cells expressing the reporter protein DTPA-V5-TMD-mRuby3 was assessed; expressed in transfected cells; host or cells: Jurkat (human T-cell line), stably modified
Protocol: The binding of different radioligands to cells that express the DTPA-R or Colchi-R was shown in binding assays. To this end, Jurkat or PC3 cells that stably express the respective reporter protein of the invention were cultivated, counted and a defined concentration was incubated together with the radioligand in PBS with 2% BSA for 1 h at 37° C. Subsequently, the cells were washed twice with PBS with 2% BSA and finally in the cell-bound fraction and the supernatant fraction the respective radioactivity was detected. (A) NH2-Bn-CHX-A″-DTPA⋅Y-90 binding was competed with a non-radioactive competitor NH2-Bn-CHX-A″-DTPA⋅Y-89. […] (C) A comparative binding assay with ^18F-Py-Ahx-DTPA and ^18F-Py-Glu-Glu-PEG(4)-Colchicine to Jurkat cells expressing either DTPA-R or Colchi-R proving the orthogonal functionality of the two reporter protein & reporter probe pairs.
For the sensitive and specific detection of cells that are labeled with the reporter gene of the invention, the binding between the Anticalin binding protein and the radioligand is of utmost importance. For this reason, the binding of different radioligands to cells that were stably modified with the reporter genes was studies in vitro (FIG. 14). At first, the binding of the ligand domain for the DTPA-R (NH2-CHX-A″-DTPA) to Jurkat cells expressing the reporter protein DTPA-V5-TMD-mRuby3 was assessed. […]

[2] = target: scFv(huC825)-V5-CD4TMD; assay: Flow cytometry of retrovirally transduced Jurkat cells after FACS sorting of the 10% highest expressing cells. Staining with AlexaFluor488-conjugated SV5-PK1. Target printed as huC825-V5-TMD.
[3] = target: DTPA-V5-TMD-mRuby3 (human); assay: Flow cytometry of lentivirally transduced Jurkat cells stained with Alexa Fluor 488-conjugated SV5-PK1 against the extracellular V5-tag. Target printed as DTPA-mRuby3.
[4] = target: scFv(huC825)-V5-CD4TMD; assay: flow cytometry, SV5-PK1-AlexaFluor488 on transduced Jurkat cells; the filing reads it as surface expression level
[5] = target: CL31d-V5-CD4TMD (human); assay: as above
[6] = target: scFv(muC825)-V5-CD4TMD; assay: as above
[7] = target: DTPA-V5-TMD-mRuby3 (human); assay: Magnetic-activated cell separation with SV5-PK1 and anti-mouse IgG microbeads, read by flow cytometry for mRuby3. Cells: Jurkat DTPA-V5-TMD-mRuby3.
[8] = target: Colchi-V5-TMD (human); assay: Quantification of the SV5-PK1 western blot signals with LI-COR software. The y axis is fold change [relative].
[9] = target: CL31d-V5-CD4TMD (human); assay: as above
[10] = target: DTPA-miRFP720; assay: Flow cytometry of lentivirally transduced Jurkat cells stained with Alexa Fluor 488-conjugated SV5-PK1 against the extracellular V5-tag. Target printed as DTPA-miRFP720.
[11] = target: CL31d-V5-CD4TMD (human); assay: Flow cytometry of retrovirally transduced Jurkat cells after FACS sorting of the 10% highest expressing cells. Staining with AlexaFluor488-conjugated SV5-PK1. Target printed as CL31d-V5-TMD.
[12] = target: DTPA-miRFP703; assay: Flow cytometry of lentivirally transduced Jurkat cells stained with Alexa Fluor 488-conjugated SV5-PK1 against the extracellular V5-tag. Target printed as DTPA-miRFP703.
[13] = target: CL31d-V5-CD4TMD (human); assay: Flow cytometry of lentivirally transduced Jurkat cells stained with Alexa Fluor 488-conjugated SV5-PK1 against the extracellular V5-tag. Target printed as DTPA-TMD.
[14] = target: Colchi-V5-TMD-mRuby3 (human); assay: Magnetic-activated cell separation with SV5-PK1 and anti-mouse IgG microbeads, read by flow cytometry for mRuby3. Cells: Jurkat Colchi-V5-TMD-mRuby3.
[15] = target: scFv(muC825)-V5-CD4TMD; assay: Flow cytometry of retrovirally transduced Jurkat cells after FACS sorting of the 10% highest expressing cells. Staining with AlexaFluor488-conjugated SV5-PK1. Target printed as muC825-V5-TMD.

CL31d-V5-CD4TMD (human), sequence (chain, as listed by the source): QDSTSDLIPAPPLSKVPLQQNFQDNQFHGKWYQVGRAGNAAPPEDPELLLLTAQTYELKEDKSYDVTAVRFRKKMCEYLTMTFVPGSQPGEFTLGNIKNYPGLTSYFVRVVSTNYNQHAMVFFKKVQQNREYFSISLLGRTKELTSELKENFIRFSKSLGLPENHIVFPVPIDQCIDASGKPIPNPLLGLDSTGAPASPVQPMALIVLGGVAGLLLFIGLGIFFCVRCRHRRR
T1 sequence (P80188 21-197 with the stated changes): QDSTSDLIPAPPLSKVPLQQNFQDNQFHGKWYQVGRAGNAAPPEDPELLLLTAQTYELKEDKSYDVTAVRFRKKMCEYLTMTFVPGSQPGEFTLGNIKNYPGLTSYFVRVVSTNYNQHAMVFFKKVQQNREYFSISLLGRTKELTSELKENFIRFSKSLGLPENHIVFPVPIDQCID

Molecule	pIC50 [1]	MFI [2]	MFI [3]	Median Fluorescence Intensity (MFI) [4]	Median Fluorescence Intensity (MFI) [5]	Median Fluorescence Intensity (MFI) [6]	% mRuby3-positive cells in the MACS eluate [7] [%]	% mRuby3-positive cells in the MACS flow through [7] [%]	fold increase of the quantified V5 band signal, lane 5 over lane 3 (Colchi-V5-TMD-mRuby3) [8] [fold]	fold increase of the quantified V5 band signal, lane 4 over lane 2 (DTPA-V5-TMD-mRuby3) [9] [fold]	MFI [10]	MFI [11]	MFI [12]	MFI [13]	% mRuby3-positive cells in the MACS eluate [14] [%]	% mRuby3-positive cells in the MACS flow through [14] [%]	MFI [15]
Nc1ccc(C[C@H](CN(CC(=O)O)[C@H]2CCCC[C@@H]2N(CC(=O)O)CC(=O)O)N(CC(=O)O)CC(=O)O)cc1 [NH2-CHX-A″-DTPA, [(R)-2-amino-3-(4-aminophenyl)propyl]-trans-(S,S)-cyclohexane-1,2-diaminepentaacetic acid]	8.85	–	–	–	–	–	–	–	–	–	–	–	–	–	–	–	–
monoclonal anti-V5-antibody SV5-PK1	–	6200	1740	1080	6560	1130	98.5	0.8	5.4	3.7	2550	20600	2330	18500	99	1.5	7400

Reference: patent US20230365636A1, “BIOORTHOGONAL REPORTER GENE SYSTEM” (priority 2020, published 2023)
